“And” between values parts separate entries of the source, which are not always exact repeats. Identical values can stand only once. Like-named read-outs stand apart in the source and are kept apart here.
Tests used:
Settings in all cases: remark: other sources report otherwise
[1] = target: T1, human CTC1-STN1-TEN1 (CST) heterotrimeric complex (human), Q2NKJ3; assay: negative-stain EM single-particle analysis
T1 chain 1: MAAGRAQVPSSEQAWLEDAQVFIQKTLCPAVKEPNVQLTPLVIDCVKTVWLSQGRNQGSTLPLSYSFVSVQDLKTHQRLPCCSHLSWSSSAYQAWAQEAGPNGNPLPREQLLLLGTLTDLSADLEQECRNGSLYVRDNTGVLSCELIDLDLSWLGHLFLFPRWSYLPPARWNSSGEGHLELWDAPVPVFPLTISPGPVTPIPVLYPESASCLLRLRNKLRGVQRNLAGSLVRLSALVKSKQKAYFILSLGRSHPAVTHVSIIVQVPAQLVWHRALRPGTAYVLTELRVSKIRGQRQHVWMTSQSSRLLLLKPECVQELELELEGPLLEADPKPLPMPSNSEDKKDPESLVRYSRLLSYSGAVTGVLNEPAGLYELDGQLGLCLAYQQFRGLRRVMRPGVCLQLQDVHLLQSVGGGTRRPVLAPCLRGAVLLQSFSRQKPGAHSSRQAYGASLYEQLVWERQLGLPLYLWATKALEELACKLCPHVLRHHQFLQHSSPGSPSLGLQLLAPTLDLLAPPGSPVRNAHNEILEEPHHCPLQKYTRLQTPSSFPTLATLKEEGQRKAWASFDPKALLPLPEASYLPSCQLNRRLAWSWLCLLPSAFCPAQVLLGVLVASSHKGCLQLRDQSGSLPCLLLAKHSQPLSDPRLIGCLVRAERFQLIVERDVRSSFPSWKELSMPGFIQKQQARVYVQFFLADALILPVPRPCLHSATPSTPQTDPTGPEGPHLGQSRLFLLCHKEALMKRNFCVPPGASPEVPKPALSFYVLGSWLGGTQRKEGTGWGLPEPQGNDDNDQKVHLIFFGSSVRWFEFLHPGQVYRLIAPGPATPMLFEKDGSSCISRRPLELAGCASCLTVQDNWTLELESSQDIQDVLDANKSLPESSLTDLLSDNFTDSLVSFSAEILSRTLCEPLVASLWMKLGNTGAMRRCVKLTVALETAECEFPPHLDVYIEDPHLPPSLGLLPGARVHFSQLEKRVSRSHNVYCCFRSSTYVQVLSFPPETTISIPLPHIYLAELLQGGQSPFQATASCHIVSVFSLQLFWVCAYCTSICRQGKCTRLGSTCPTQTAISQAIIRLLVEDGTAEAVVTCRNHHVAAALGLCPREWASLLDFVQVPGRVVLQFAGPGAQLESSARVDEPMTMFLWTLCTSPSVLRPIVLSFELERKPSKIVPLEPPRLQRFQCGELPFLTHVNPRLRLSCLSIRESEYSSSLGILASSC
T1 chain 2: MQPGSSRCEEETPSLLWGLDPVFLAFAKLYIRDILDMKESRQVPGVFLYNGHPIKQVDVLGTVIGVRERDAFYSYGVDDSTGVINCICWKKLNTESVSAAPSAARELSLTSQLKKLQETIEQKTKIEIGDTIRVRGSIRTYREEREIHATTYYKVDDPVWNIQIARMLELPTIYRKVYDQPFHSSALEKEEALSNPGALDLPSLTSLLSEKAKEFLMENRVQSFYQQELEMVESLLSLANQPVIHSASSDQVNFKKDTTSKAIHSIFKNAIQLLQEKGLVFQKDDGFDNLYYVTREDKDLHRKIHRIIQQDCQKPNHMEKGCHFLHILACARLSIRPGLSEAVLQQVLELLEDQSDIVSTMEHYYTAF
T1 chain 3: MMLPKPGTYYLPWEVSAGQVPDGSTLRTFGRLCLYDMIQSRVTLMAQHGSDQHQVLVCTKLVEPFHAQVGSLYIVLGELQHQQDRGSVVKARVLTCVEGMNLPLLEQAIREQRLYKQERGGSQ

[2] = target: T1, human CTC1-STN1-TEN1 (CST) …; assay: negative-stain EM single-particle analysis
[3] = target: T1, human CTC1-STN1-TEN1 (CST) …
[4] = target: T1, human CTC1-STN1-TEN1 (CST) …; assay: cryo-EM structure

stoichiometry N [1]: 10
stoichiometry N [2]: 4 and 2
stoichiometry N [3]: 10
stoichiometry N [4]: 10
B1: human CTC1-STN1-TEN1 (CST) heterotrimeric complex, Q2NKJ3;Q9H668;Q86WV5 (complex)
chain 1: T1 chain 1
chain 2: T1 chain 2
chain 3: T1 chain 3

Reference: paper doi:10.1101/815886
